Laboratory results from publication PMC5964521 (Infection and Immunity, 2018).

Legend:
Assay in all cases: ELISA
Details in all cases: both partners purified
[1] = biological target: pertussis toxin (PTx) holotoxin, native (Bordetella pertussis, strain  …, UniProt P04977;P04978;P04979;P0A3R5;P04981)
[2] = biological target: T1, PTx B oligomer (Bordetella pertussis, strain  …, UniProt P04978;P04979;P0A3R5;P04981)
[3] = biological target: pertussis toxin (native PTx holotoxin) (Bordetella pertussis, strain  …, UniProt P04977;P04978;P04979;P0A3R5;P04981)
[4] = biological target: T1, PTx B oligomer; remark: listed apart in the source
[5] = biological target: PTx S1-220 (soluble, truncated recombinant S1 subunit) (Bordetella pertussis, strain  …, UniProt P04977)

B1: biotinylated antibody A12, recombinant human IgG1 (antibody, V domains shown)
VH: QVTLKESGGGLVKPGGSLRLSCAASGFTFTDYYMTWIRQAPGKGLEWVSCVGSSGTYTNYAQNVQGRFTISRDNAKNSLYLQMNSLRTEDTAVYYCARVTGSGNFYGSYHYYYMDVWGKGTMVTVSS
VL: EVVLTQSPATLSLSPGKKATLSCRASQSVSNYLAWYQQKPGQSPRLLIFDASKRAAGIPARFSGSGSGTDFTLTISSLEPEDFAVYYCQQRTNWLTFGGGTKVEIK
EC50 [1]: 0.24 nM

B2: biotinylated antibody E12, recombinant human IgG1 (antibody, V domains shown)
VH: EVQLVESGGDLVQPGGSLRLSCEASGFTFSNYAMSWVRQAPGKGLEWVSGTSGSGGSTYYADSVKGRFTLSRDNSKNTLYLQMNSLRAEDTAVYYCAKDREVLRFFLLPYYFDSWGQGTLVTVSS
VL: DIVMTQSPGSLSLSPGERATLSCRASQSVSSDYVAWYQQKPGQAPRLLIFDASTRATGIPDRFSGSGSGTDFTLTIGRLEPEDFAVYYCQQYGNSPLTFGGGAKVEIK
EC50 [1]: 0.56 nM

B3: biotinylated antibody A8, recombinant human IgG1 (antibody, V domains shown)
VH: QVQLVESGAEVKKPGASVKVSCKTSGYTFSSYGITWVRQAPGQGLEWMGWISAYNGDTNYADSVKGRVTMTTDTSTSTAYMELRSLRFDDTAVYYCARDTSFAPSGYGFDISGQGTTVTVSS
VL: DIQLTQSPSSLSASVGDRVTITCRASQGIRHELAWYQQKPGKAPQRLIYAASSLQSGVPSRFSGSGSGTDFTLTINSLQPEDSATYYCLQVNSYPRTFGQGTRVDIK
EC50 [1]: 0.65 nM

B4: biotinylated antibody D8, recombinant human IgG1 (antibody, V domains shown)
VH: QITLRESGAEVTKPGSSVKVSCKASGGTFGSYGIRWVRQAPGQGLEWMGGIIPMFGTANYAQRFQGRVTITADKSTSTAYMELSSLKSEDTAVYYCARENSIVGANWFDPWGQGTLVTVSS
VL: EIVMTQSPSSLSASVGDRVTFTCRASQSISTYLNWYQQKPGKAPTLLIYAASTLRSGVPSRFSGSGSGTDFTLTISSLQPVDFATYFCQQSYSSPYTFGQGTTLEIK
EC50 [1]: 0.76 nM

B5: biotinylated antibody H5, recombinant human IgG1 (antibody, V domains shown)
VH: QVQLVESGPGLVKPSETLSLTCTVSGASVSSGTYYWSWIRQPPGKGLEWIGYSYYTGSSDSNASLKSRVTLSIDTSRNLLSLKLTSVTAADTAVYYCARDRRKVRGVWAGYSGMDVWGPGTTVTVSS
VL: EIVMTQSPSSLSASVGDRVTITCQASQEITNYLNWYQQKPGKAPKLLIYDASHLETGVPSRFSGSGSGTDFSFTISSLQPEDIATYYCQQYDDFPWGGVTFGGGTKVEIK
EC50 [1]: 0.06 nM

B6: antibody A12 (antibody, V domains shown)
VH: B1 VH
VL: B1 VL
binding result [2]: no binding | EC50 [3]: 0.1 nM

B7: antibody D8 (antibody, V domains shown)
VH: B4 VH
VL: B4 VL
EC50 [3]: 0.14 nM | EC50 [4]: 0.78 nM

B8: antibody H5 (antibody, V domains shown)
VH: B5 VH
VL: B5 VL
EC50 [3]: 0.02 nM | EC50 [4]: 0.11 nM

B9: antibody E12 (antibody, V domains shown)
VH: B2 VH
VL: B2 VL
binding result [2]: no binding | EC50 [3]: 0.13 nM | EC50 [5]: 0.05 nM

B10: antibody A8 (antibody, V domains shown)
VH: B3 VH
VL: B3 VL
binding result [2]: no binding | EC50 [3]: 0.15 nM | EC50 [5]: 0.02 nM
